The results in this text go back to patent publication US20220195015A1 (published 2022).

For test [1], the target named is SARS-CoV-2 RBD (S protein residues 319-539), wild type (SARS-CoV-2, UniProt P0DTC2 319-539). In words: ELISA, RBD coated on plate, mAb titrated.
Test [2] concerns the target SARS-CoV-2 spike receptor binding domain (RBD), wild type (SARS-CoV-2, UniProt P0DTC2 319-539). In words: ELISA on coated RBD protein.

B1: C590 (antibody, V domains shown)
VH: QVQLVQSGAEVKKPGASVKVSCKVSGYNLTELSMYWVRQAPGKGLEWMGGFDPEDGGPIHAQKFQGRVTMTEDPSTDTAYMELRSLRSEDTALYYCATGGLFMIRGLEIWGRGTLVTVSS
VL: EIVLTQSPGTLSLSPGERATLSCRASQSISYTSLAWYQQKPGQAPRLLIFGASRGATGTPDRFSGSWSGTDFTLTISRLEPEDFAVYYCQQYGNSPRLSFGGGTKVEIK
The molecule B1 came in with an EC50 in test [1] of 2.81 ng/mL.

B2: C588 (antibody, V domains shown)
VH: EVQLVESGGGLVQPGGSLKLSCAASGFTFSGSAMHWVRQASGKGLEWVGRIRNKANSYATAYGASVRGRFTVSRDDSKNTAYLQMNSLKIEDTAVYYCTKDIAAGIPALNWFDSWGQGTLVTVSS
VL: EIVLTQSPATLSLSPGERATLSCRASQSVSSYLAWYQQKPGQAPRLLIYDASNRATGIPARFSGSGSGTDFTLTISSLEPEDFAVYYCQQHTNWPPRITFGGGTKVEIK
In turn, B2 came in with an EC50 in test [1] of 1.36 ng/mL.

B3: C589 (antibody, V domains shown)
VH: QVQLQESGPGLVKPSQTLSLTCTVSGGSISSGDYYWSWIRQPPGKGLEWIGYIYYSGSTNYNPSLRSRVTISVDTSKNQFSLRLRSVTAADTAVYYCARDAIGSASYGVEYFQHWGQGTLVTVSS
VL: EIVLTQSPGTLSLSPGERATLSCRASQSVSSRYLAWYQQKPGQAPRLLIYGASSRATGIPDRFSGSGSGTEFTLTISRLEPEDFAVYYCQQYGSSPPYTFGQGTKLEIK
As for B3, the concentration giving a half-maximal response (EC50) in test [1] worked out at 6.61 ng/mL.

B4: C002 (antibody, V domains shown)
VH: EVQLVESGGGVVQPGRSLRLSCAASGFTFSIYGMHWVRQAPGKGLEWVAVISYDGSNKYYADSVKGRFTISRDNSKNTLYLQMNSLRAEDTAVYYCAKEGRPSDIVVVVAFDYWGQGTLVTVSS
VL: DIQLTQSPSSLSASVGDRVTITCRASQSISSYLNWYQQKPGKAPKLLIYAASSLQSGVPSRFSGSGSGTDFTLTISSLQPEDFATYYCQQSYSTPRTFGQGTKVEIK
With B4, the concentration for a half-maximal effect (EC50) in test [2] was 1.98 ng/mL.

B5: C021 (antibody, V domains shown)
VH: QVQLQESGPGLVKPSQTLSLTCTVSGGSISSGGYYWSWIRQHPGKGLEWIGYIYYSGSTYYNPSLKSRVTISVDTSKNQFSLKLSSVTAADTAVYYCARVWQYYDSSGSFDYWGQGTLVTVSS
VL: not shown
For B5, the half-maximal effective concentration (EC50) in test [2] is 4.19 ng/mL.
